Results reported in the supplement of paper PMC12455559.
± gives the standard deviation of the averaged measurements.

Key:
[1] = melting temperature (DSF); higher = more thermostable
Outline: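 Enzymes made in E. coli C41(DE3) were nickel-bead purified and cut free with SUMO protease before testing. Differential scanning fluorimetry gave each melting temperature. For this, 5 μL 5X Sypro Orange was added to 45 μL enzyme (0 to 0.3 mg/mL) in sealed PCR plates, and a Bio-Rad CFX96 read fluorescence from 25 °C over 250 cycles of 0.3 °C each, ramping at 0.3 °C/s.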

[2] = purified protein yield per well (BCA); higher = higher soluble expression
Outline: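 The measured quantity is purified protein yield per well, determined with the Pierce Rapid Gold BCA kit. Anything below 25 ug (0.1 mg/mL) lies under the detection threshold. Enzymes were expressed in E. coli C41(DE3) in 2 mL autoinduction cultures with 100 µg/mL kanamycin at 37 °C for 2 h, then 18 °C for 40 h, and purified on an OT-2 robot using Ni-charged magnetic beads and SUMO protease release.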

[3] = PET hydrolysis, aromatic products released after 48 h (umol product/mg enzyme); higher = more PET depolymerization activity
Outline: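 Hydrolysis activity toward PET is reported as supernatant aromatic product per mg enzyme. To measure it, 5 μg (50 μL) of tagless enzyme was incubated with 3.5 mg amorphous PET film or crystalline PET powder in 450 μL buffer for 48 h at 40 or 60 °C in sealed, unshaken plates. The product was quantified by absorbance at 260 and 280 nm relative to buffer blanks.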

[4] = substrate: aFilm, 40 °C, pH 4.5
[5] = substrate: aFilm, 40 °C, pH 5.5
[6] = substrate: aFilm, 40 °C, pH 6.5
[7] = substrate: aFilm, 40 °C, pH 7.5
[8] = substrate: aFilm, 60 °C, pH 4.5
[9] = substrate: aFilm, 60 °C, pH 5.5
[10] = substrate: aFilm, 60 °C, pH 6.5
[11] = substrate: aFilm, 60 °C, pH 7.5
[12] = substrate: cryPow, 40 °C, pH 4.5
[13] = substrate: cryPow, 40 °C, pH 5.5
[14] = substrate: cryPow, 40 °C, pH 6.5
[15] = substrate: cryPow, 40 °C, pH 7.5
[16] = substrate: cryPow, 60 °C, pH 4.5
[17] = substrate: cryPow, 60 °C, pH 5.5
[18] = substrate: cryPow, 60 °C, pH 6.5
[19] = substrate: cryPow, 60 °C, pH 7.5
[20] = substrate: cryPow, 40 °C, pH 8.5
[21] = substrate: cryPow, 60 °C, pH 8.5

Row | Sequence | melting temperature [1] [C] | purified protein yield per well [2] [µg] | PET hydrolysis [3, 4] | PET hydrolysis [3, 5] | PET hydrolysis [3, 6] | PET hydrolysis [3, 7] | PET hydrolysis [3, 8] | PET hydrolysis [3, 9] | PET hydrolysis [3, 10] | PET hydrolysis [3, 11] | PET hydrolysis [3, 12] | PET hydrolysis [3, 13] | PET hydrolysis [3, 14] | PET hydrolysis [3, 15] | PET hydrolysis [3, 16] | PET hydrolysis [3, 17] | PET hydrolysis [3, 18] | PET hydrolysis [3, 19] | PET hydrolysis [3, 20] | PET hydrolysis [3, 21]
1 | AANPYERGPDPTDAILEAARGPFETSRTEVPALSVTGFGGGTIYYPATTSAGTFGGVAVAPGYTADRTSLAWLAERLASHGFVVFNIDTLTRLDQPDSRGRQLLAALDYLTQRSSVRGRLDAGRLGVMGHSMGGGGTLEAARDRPSLQAAVPLTPWDLTKIWSGVRVPTMIVGAEADTIAPVASHAEPFYQSLPSSPGKAYLELNNATHFAPNVPDTTIGKYVVAWMKRFVDDDTRYTRFLCPGPSGGLTVEEYRSTCPFS [TEP194] | 50.8 | 325 | < 3 | < 3 | < 3 | < 3 | < 3 | < 3 | 2 ± 2.8 | < 3 | 5 | 8.5 ± 0.71 | 7 | 1.5 ± 2.1 | 3.5 ± 0.71 | 7 | 3.5 ± 0.71 | < 3 | – | –
2 | ADNPYQRGPDPTRNSVAAENGPFANTSVSVPSGNGFNGGRIYYPTDTSQGTFGAIAISPGYTALFSAELAWMGPWLASHGFVVIGIETNSRNDFDTARGTQLLAALDYLTQQSTVRNRVDPNRLAVAGHSMGGGGALSAAMRRPSLKAVAGITPYSPSSNLANDRVPTMIISGQADTVVTPSYALGLYNSIPATTESVYLEVAGGDHGFMVGRSNPVLIRTMLPFLKTFVDNDARYTQFLCPLVDNSGVVTYRNTCPLLPPPTGTPTPTPTTPGPTTPPPTTPPPGSASEIVGTQSGRCVDVPNSSRTNGTRVQLYDCNRQTNQTWTYNTSTKQLRVYGDMCLDAAGTGNSAAVQIYACHSQTNQQWNINTNGTISGVQSGRCLDAWNTTNGAQIQLYDCHGQTNQQFRLAAR [TEP115] | 60.4 | 113 | – | – | – | – | – | – | – | – | 4 | 8 | 7 | 3 | < 3 | < 3 | < 3 | < 3 | – | –
3 | AEAADNPYQRGPDPTLASVAATRGPFATAQATVPAGNGFNGGYVYYPTDTSLGTWGAVAIVPGYSALFADEEAWMGPWLASFGFVVLGIETNSRTDGADARATQLLAALDYLTQSSPVRHRVDANRLGVMGHSAGGAGTLMAALRRPSLKSAVGLAPGAPGNSLNMSTTQVPTMLISGQNDGTVTPSYVQGIYNTLPATVEHAWAELAGNDHLSFTRPNPTEMRILIPWLKIFLDNDTRYTQFLCPLADSTGVSRYSATCPLVPPGGPTAPPTVTPPPPTPTTPSPTTPPTSAACTATYRTVNSWSGGFQGEVTVTAGRAAINGWTVRWDLGNGQSISQVWNGTLSTSGSTATVRNVSYNGSLAPAASTGFGFLGTGAPAIPRLTCTSP [ESM037] | 73.3 | 358 | < 3 | < 3 | < 3 | < 3 | < 3 | < 3 | < 3 | < 3 | < 3 | < 3 | < 3 | < 3 | < 3 | < 3 | < 3 | < 3 | – | –
4 | MAAGPAAVAADNPYQRGPDPTPASVAAPNGPFATAQVSVPPGYGFNGGMIYYPTDTSQGTFGAIAISPGYTALFSVELAWMGPRLASQGFVVIGIETNDRNDFDTARGTQLLAALDYLTGQSSVRSRVDPNRLAVAGHSMGGGGAFSAALRRPALKAAVGFTPFSPSQNLTNMQVPALLYSGQYDTVTTPSSVSNLYNGLPSTTEGAYIEAAGLDHSFPTRPNTLLMRTMIPWVKIFLDNDLRYTQFLCPLMDSSGVLQYRNTCPLVPPGLPSPSPTTAPPTTAPPTTAPPPTTAPPPTTAPPPTTAPPPTTNPPAGACSVSYTTNQWPGGFTRDVRITNTGGSVSSWTLAFTAGSNVSLSNGWNGDWSQSGSQITVRNAAWNGSLASGATVSIGFQGTFSGSTLPPLSNITLNGAACAS [DP068] | 63.4 | 60 | – | – | – | – | – | – | – | – | – | 3 | 21 | 36 | – | < 3 | 7 | 17 | 52 | 20
5 | AANPYQRGPAPTAASVAAVTGPFATASVSVPRGNGFGGGVIYYPTDTSQGTFGGLAISPGLNGTWPGIAWLGSRLASQGFIVFGIETNNLNDSPTSRGTQLLAALDYLAQRSSVRSRLDPGRLAVAGHSMGGGGALDAALRRPSLKAAIGNAPYLPSNTLAGNRVPTLIYAMQNDTLVPPSRLTSLYNTIPATTERAYLEITGAGHNYIGQPSTTLARTMIPWLKIFIDNDTRFSQFLCPLADQSGIRQYRSSCPLVPATTRALTAAAG [DP043] | 67.3 | 92 | – | – | – | – | – | – | – | – | – | 12 | 39 | 96 | – | 7 | 62 | 98 | 115 | 107
